# Experimental data: US5830995 (Bristol-Myers Squibb Company, dated 1998)
# Where a chain is given by its changes, count along the chain named.
# B1: recombinant human AR 18 kD purified from CHO/ARGE 2a cells (ligand)
# chain: NKTESEKTSDKPKRKKKGGKNGKNRRNRKKKNLCDTEFQNFCIHGKCTFLEQLETVSCQCYPEYFGERCGEKSMKTQSMVD
# modifications: N-linked glycosylation at Asn-113
# B2: bacterially produced AAAT (ligand)
# chain: MVVKPPQNKTESENTSDKPKRKKKGGKNGKNRRNRKKKNPCNAEFQNFCIHGECKYIEHLEAVTCKCQQEYFGERCGEKDLLA
# B3: bacterially produced AR-SMKT (ligand)
# chain: B2 chain with D80S, L81M, L82K, A83T
# Columns and labels:
# human EGF receptor [1] = target: T1, human EGF receptor (human, UniProt P00533); experiment: competition of 125I-EGF binding to NRHER5 membranes
# human EGF receptor [2] = target: T1, human EGF receptor; experiment: competition of 125I-EGF binding to NRHER5 membranes, 50% inhibition
Molecule,maximum competition (human EGF receptor [1]) [%],IC50 (human EGF receptor [2]) [nM]
native amphiregulin (AR) purified from TPA-treated MCF-7 cells (ligand),85,100
"gp35, 35-40 kD soluble high molecular weight form of human AR (ligand)",,> 300
B1,,~100
B2,,~1.5
B3,,~150
